From US8691761B2, “Somatostatin receptor 2 antagonists” (priority 2006, dated 2014)
Bridge positions count the residues as written; N and C are the ends. Square brackets hold non-standard residues; d marks the D form. Peptide text beside a SMILES is read from it. * marks the point of attachment. DOTA = O=C(O)CN1CCN(CC(=O)O)CCN(CC(=O)*)CCN(CC(=O)O)CC1; dPhe(4-NHCONH2) = NC(=O)Nc1ccc(C[C@@H](N)C(=O)O)cc1; Dihydroorotyl(S) = O=C1C[C@@H](C(=O)*)NC(=O)N1; Phe(4-Cl) = N[C@@H](Cc1ccc(Cl)cc1)C(=O)O; Phe(4-NH2) = Nc1ccc(C[C@H](N)C(=O)O)cc1; 2Nal = N[C@@H](Cc1ccc2ccccc2c1)C(=O)O; NMeK = CN[C@@H](CCCCN)C(=O)O

Legend:
[1] = target: T1, sst2 (Homo sapiens, UniProt P30874); conditions: cited from earlier work
Target sequence in this assay (P30874 whole entry, species assumed): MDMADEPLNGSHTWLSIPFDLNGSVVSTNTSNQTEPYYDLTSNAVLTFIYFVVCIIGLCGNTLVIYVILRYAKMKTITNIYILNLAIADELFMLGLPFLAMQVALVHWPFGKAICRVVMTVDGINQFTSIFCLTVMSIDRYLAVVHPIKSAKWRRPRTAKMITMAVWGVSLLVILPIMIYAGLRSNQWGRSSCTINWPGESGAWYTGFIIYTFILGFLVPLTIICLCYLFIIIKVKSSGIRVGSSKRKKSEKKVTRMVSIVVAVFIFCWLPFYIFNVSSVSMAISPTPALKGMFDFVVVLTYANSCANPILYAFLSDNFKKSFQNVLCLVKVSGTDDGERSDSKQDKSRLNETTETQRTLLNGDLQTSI

[2] = target: T2, human sst2A receptor (Homo sapiens, UniProt P30874); experiment: Immunofluorescence-based sst2 internalization assay in HEK-sst2 cells; assay type: cell-based; conditions: n ≧ 2
T2 construct: expressed in transfected cells; host or cells: HEK293 (HEK-sst2)
T2 sequence (P30874 whole entry): as the sequence (P30874 whole entry, species assumed) above
How it was run: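 HEK-sst2 cells treated with vehicle, 100 nM [Tyr^3]-octreotide, octreotide plus 100-fold excess test analogue, or test analogue alone at 10 μM. Receptor internalization visualized by immunofluorescence microscopy with sst2-specific antibody R2-88.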

[3] = target: sst3 (Homo sapiens, UniProt P32745); conditions: literature value compared with own IC50; read-out: reported value at sst3 (Hocart et al.); cited from earlier work
Chain of sst3 (P32745 whole entry, species assumed): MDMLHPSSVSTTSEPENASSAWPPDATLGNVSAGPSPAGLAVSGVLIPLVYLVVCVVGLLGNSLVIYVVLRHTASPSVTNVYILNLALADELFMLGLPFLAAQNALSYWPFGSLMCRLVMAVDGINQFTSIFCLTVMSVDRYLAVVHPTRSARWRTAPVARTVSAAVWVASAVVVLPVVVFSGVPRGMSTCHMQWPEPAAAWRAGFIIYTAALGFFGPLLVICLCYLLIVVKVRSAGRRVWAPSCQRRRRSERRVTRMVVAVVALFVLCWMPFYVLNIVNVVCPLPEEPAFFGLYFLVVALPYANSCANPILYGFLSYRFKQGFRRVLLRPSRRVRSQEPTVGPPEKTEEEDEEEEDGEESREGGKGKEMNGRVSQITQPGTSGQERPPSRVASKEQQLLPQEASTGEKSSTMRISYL

[4] = target: T1, sst2; experiment: Calcium release assay in HEK-sst2 cells (Fluo-4NW); assay type: cell-based; parameters: expressed in transfected cells; host or cells: HEK293 (HEK-sst2); conditions: n ≧ 2
Description: Calcium release assay. Intracellular calcium release was measured in HEK-sst2 using the Fluo-4NW Calcium Assay kit as described previously (Magrys, et al. “The role of anti-alpha-enolase autoantibodies in pathogenicity of autoimmune-mediated retinopathy.” J. Clin. Immunol. 2007, 27, 181-192; Michel et al. “The Nef protein of human immunodeficiency virus is a broad-spectrum modulator of chemokine receptor cell surface levels that acts independently of classical motifs for receptor endocytosis and Galphai signaling.” Mol. Biol. Cell. 2006, 17, 3578-3590). In brief, HEK-sst2 cells were seeded (25,000 cells per well) in poly-D-lysine (20 μg/mL) coated 96 well plates and cultured for 1 day at 37° C. and 5% CO2 in culture medium. At the day of the experiment, the cells were washed with assay buffer (1×HBSS, 20 mM HEPES) containing 2.5 mM probenecid, and then loaded with 100 μL/well Fluo-4NW dye in assay buffer containing 2.5 mM probenecid for 30 min at 37° C. and 5% CO2 and then for further 30 min at room temperature. To measure the intracellular calcium mobilization after stimulation with the SRIF analogues to be tested, the dye-loaded cells were transferred to a SpectraMax M2^e (Molecular Devices, Sunnyvale, Calif.). Intracellular calcium mobilization was recorded in a kinetic for 60 sec at room temperature monitoring fluorescence emission at 520 nm (with λex=485 nm) in the presence of the analogues at the concentrations indicated. Maximum fluorescence (Fmax) was measured after the addition of 25 μM ionomycin. Baseline (control) measurements were taken for dye-loaded, untreated cells. Data are shown as percentage of Fmax (% Fmax) as reported previously. (Magrys, et al. J. Clin. Immunol. 2007, 27, 181-192; Michel et al. Mol. Biol. Cell. 2006, 17, 3578-3590). All experiments were repeated at least three times in triplicate.
Target sequence in this assay (P30874 whole entry): as the sequence (P30874 whole entry, species assumed) above

[5] = in vivo; conditions: female, athymic nude, mouse, iv, total radioactivity, biodistribution
Description: (§1) The following protocol was used to determine biodistribution
(§2) Confirmation that the transfected tumors were indeed expressing solely sst2 was obtained in resected tumor samples tested in vitro with somatostatin receptor autoradiography using subtype selective ligands.
(§3) The biodistribution of was studied at 4 h or 24 h after injection. The organs of interest were collected, blotted dry, weighed, their radioactivity measured and the percentage of injected activity per gram (% IA/g) calculated.

[6] = tested on: HEK-sst2 tumors; experiment: In vivo biodistribution of radiolabeled peptides in nude mice bearing HEK-sst2 tumors; conditions: 1000- or 2000-fold excess of unlabelled compound
Description: as §1, §2, §3

[7] = tested on: HEK-sst2 tumors; conditions: female, athymic nude, mouse, in vivo, iv, 4 h
Description: as §1, §2, §3

[8] = target: T3, hSSTR4 (Homo sapiens, UniProt P31391); experiment: Receptor autoradiography, displacement of 125I-[Leu8,D-Trp22,Tyr25]-SRIF-28 from membrane pellet sections; assay type: binding; conditions: Table 3; mean ± SEM when N ≧ 3; read-out: sst4 binding affinity (IC50)
T3 construct: expressed in transfected cells; host or cells: CHO-K1 or CCL39 cells
T3 sequence (P31391 whole entry): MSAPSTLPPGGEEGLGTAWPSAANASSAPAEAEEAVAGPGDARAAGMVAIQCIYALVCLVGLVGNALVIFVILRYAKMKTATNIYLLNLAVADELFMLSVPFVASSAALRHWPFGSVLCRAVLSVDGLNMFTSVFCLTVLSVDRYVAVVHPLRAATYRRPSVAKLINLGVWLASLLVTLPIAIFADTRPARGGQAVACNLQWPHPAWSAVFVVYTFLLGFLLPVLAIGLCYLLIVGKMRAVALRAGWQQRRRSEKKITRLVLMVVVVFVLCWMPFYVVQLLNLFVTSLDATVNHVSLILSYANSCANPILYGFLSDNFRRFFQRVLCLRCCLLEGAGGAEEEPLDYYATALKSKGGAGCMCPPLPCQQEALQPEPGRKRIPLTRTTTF

[9] = target: T4, hSSTR2 (Homo sapiens, UniProt P30874); experiment: as above; assay type: binding; conditions: Table 3; mean ± SEM when N ≧ 3; read-out: sst2 binding affinity (IC50)
T4 construct: expressed in transfected cells; host or cells: CHO-K1 or CCL39 cells
T4 sequence (P30874 whole entry): as the sequence (P30874 whole entry, species assumed) above

[10] = target: T5, hSSTR3 (Homo sapiens, UniProt P32745); experiment: as above; assay type: binding; conditions: Table 3; mean ± SEM when N ≧ 3; read-out: sst3 binding affinity (IC50)
T5 construct: expressed in transfected cells; host or cells: CHO-K1 or CCL39 cells
T5 sequence (P32745 whole entry): as the sequence (P32745 whole entry, species assumed) above

[11] = target: T6, hSSTR1 (Homo sapiens, UniProt P30872); experiment: as above; assay type: binding; conditions: Table 3; mean ± SEM when N ≧ 3; read-out: sst1 binding affinity (IC50)
T6 construct: expressed in transfected cells; host or cells: CHO-K1 or CCL39 cells
T6 sequence (P30872 whole entry): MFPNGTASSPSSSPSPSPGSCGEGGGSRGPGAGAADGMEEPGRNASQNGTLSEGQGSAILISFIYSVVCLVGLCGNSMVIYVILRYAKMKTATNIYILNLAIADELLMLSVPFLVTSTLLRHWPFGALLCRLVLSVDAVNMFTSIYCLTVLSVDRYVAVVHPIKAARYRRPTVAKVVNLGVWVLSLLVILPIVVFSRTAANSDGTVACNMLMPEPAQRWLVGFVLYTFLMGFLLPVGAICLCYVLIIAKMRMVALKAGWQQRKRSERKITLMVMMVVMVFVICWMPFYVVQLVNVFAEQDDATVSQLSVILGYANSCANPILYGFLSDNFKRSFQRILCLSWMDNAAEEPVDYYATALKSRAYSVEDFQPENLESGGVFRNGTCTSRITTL

Q: With `C[C@@H](O)[C@@H]1NC(=O)[C@H](CCCCN)NC(=O)[C@@H](Cc2c[nH]c3ccccc23)NC(=O)[C@H](Cc2ccc(O)cc2)NC(=O)[C@H](NC(=O)[C@@H](N)Cc2ccc(Cl)cc2)CSSC[C@@H](C(=O)N[C@@H](Cc2ccc3ccccc3c2)C(N)=O)NC1=O` [compound 7, H2N-Cpa-c[DCys-Tyr-DTrp-Lys-Thr-Cys]-2Nal-NH2, reference compound] (H-[Phe(4-Cl)][dC]Y[dW]KTC[2Nal]-NH2; disulfide 2-7) as the molecule, how does the IC50 ([1]; literature value compared with own IC50, read-out: reported value at sst2 (Hocart et al.)) read?
A: 26 nM

Q: And the “sst2-internalization tested in vitro in HEK-sst2 cells (function)” value [2]?
A: Antagonist

Q: What about the IC50 [3] of the same molecule?
A: 93 nM

Q: What about the “Calcium release tested in vitro in HEK-sst2 cells (function)” value [4] of the same molecule?
A: Antagonist

Q: For `C[C@@H](O)[C@@H]1NC(=O)[C@H](CCCCN)NC(=O)[C@@H](Cc2ccc(NC(N)=O)cc2)NC(=O)[C@H](Cc2ccc(NC(=O)[C@@H]3CC(=O)NC(=O)N3)cc2)NC(=O)[C@H](NC(=O)[C@H](Cc2ccc(Cl)cc2)NC(=O)CN2CCN(CC(=O)O)CCN(CC(=O)O)CCN(CC(=O)O)CC2)CSSC[C@@H](C(N)=O)NC1=O` [^111In-labelled Peptide No. 33, metal not drawn] ({DOTA}-[Phe(4-Cl)][dC][Phe(4-NH2)](Dihydroorotyl(S))[dPhe(4-NHCONH2)]KTC-NH2; disulfide 2-7), which tissue uptake at 4 h ([5]; adrenal) is on record?
A: 0.23 %ID/g

Q: What about the tissue uptake at 4 h ([5]; blood) of the same molecule?
A: 0.12 %ID/g

Q: What about the tissue uptake at 4 h ([5]; bone) of the same molecule?
A: 0.04 %ID/g

Q: What about the tissue uptake at 4 h ([5]; heart) of the same molecule?
A: 0.05 %ID/g

Q: What about the tissue uptake at 4 h ([5]; liver) of the same molecule?
A: 0.32 %ID/g

Q: And the tissue uptake at 4 h ([5]; muscle)?
A: 0.02 %ID/g

Q: And the tissue uptake at 4 h ([5]; pancreas)?
A: 0.05 %ID/g

Q: What about the tissue uptake at 4 h ([5]; pituitary) of the same molecule?
A: 0.14 %ID/g

Q: And the tissue uptake at 4 h ([5]; sst2 tumor)?
A: 0.22 %ID/g

Q: And the tissue uptake at 4 h ([5]; sst3 tumor)?
A: 0.14 %ID/g

Q: And the “effect of excess unlabelled compound on binding in vivo” value [6]?
A: inhibited binding

Q: And the “biodistribution, intestine” value [7]?
A: 0.09 % IA/g

Q: And the “biodistribution, kidney” value [7]?
A: 10.3 % IA/g

Q: And the “biodistribution, lung” value [7]?
A: 0.21 % IA/g

Q: What about the “biodistribution, spleen” value [7] of the same molecule?
A: 0.2 % IA/g

Q: What about the “biodistribution, stomach” value [7] of the same molecule?
A: 0.12 % IA/g

Q: What does the source list for `C[C@@H](O)[C@@H]1NC(=O)[C@H](CCCCN)N(C)C(=O)[C@@H](Cc2c[nH]c3ccccc23)NC(=O)[C@H](Cc2ccc(O)cc2)NC(=O)[C@H](NC(=O)[C@@H](N)Cc2ccc(Cl)cc2)CSSC[C@@H](C(=O)N[C@@H](Cc2ccc3ccccc3c2)C(N)=O)NC1=O` [compound 8, H2N-Cpa-c[DCys-Tyr-DTrp-NMeLys-Thr-Cys]-2Nal-NH2, reference compound] (H-[Phe(4-Cl)][dC]Y[dW][NMeK]TC[2Nal]-NH2; disulfide 2-7)?
A: increase of binding affinity at sst2 versus 7 in Hocart et al. assay [1]: 5 fold; sst2-internalization tested in vitro in HEK-sst2 cells (function) [2]: Antagonist; Calcium release tested in vitro in HEK-sst2 cells (function) [4]: Antagonist; IC50 [8]: 715 ± 137 nM; IC50 [9]: 10 ± 3.5 nM; IC50 [10]: 61 ± 14 nM; IC50 [11]: > 1000 nM
